According to paper PMC8687477 (2021):

Tests used:
[1] = biological target: T1, SARS-CoV-2 nucleocapsid protein (N), 2X-StrepTag tagged (SARS-CoV-2, UniProt P0DTC9 1-419); assay: BLI
[2] = biological target: T1, SARS-CoV-2 nucleocapsid protein (N), …; assay: BLI; remark: listed apart in the source

B1: recombinant human CCL26 (ligand)
chain: TRGSDISKTCCFQYSHKPLPWTWVRSYEFTSNSCSQRAVIFTTKRGKKVCTHPRKKWVQKYISLLKTPKQL
What does the source list for B1?
Kd [1]: 0.026 µM; koff [2]: 0.00093 s⁻¹

B2: recombinant human CCL5 (ligand)
chain: SPYSSDTTPCCFAYIARPLPRAHIKEYFYTSGKCSNPAVVFVTRKNRQVCANPEKKWVREYINSLEMS
For B2, which koff [2] is on record?
Its koff is 0.00019 s⁻¹.

B3: recombinant human CXCL9 (ligand)
chain: TPVVRKGRCSCISTNQGTIHLQSLKDLKQFAPSPSCEKIEIIATLKNGVQTCLNPDSADVKELIKKWEKQVSQKKKQKNGKKHQKKKVLKVRKSQRSRQKKTT
What does the source list for B3?
Kd [1]: 0.012 µM; koff [2]: 0.00085 s⁻¹

B4: recombinant human CCL11 (ligand)
chain: not shown
With B4 as the binder, how does the Kd [1] read?
The Kd was 0.072 µM.

And the koff [2]?
The koff was 0.0045 s⁻¹.

B5: recombinant human CCL28 (ligand)
chain: SEAILPIASSCCTEVSHHISRRLLERVNMCRIQRADGDCDLAAVILHVKRRRICVSPHNHTVKQWMKVQAAKKNGKGNVCHRKKHHGKRNSNRAHQGKHETYGHKTPY
For B5, which Kd [1] is on record?
Its Kd is 0.022 µM.

And the koff [2]?
The koff was 0.00087 s⁻¹.

B6: recombinant human CCL21 (ligand)
chain: SDGGAQDCCLKYSQRKIPAKVVRSYRKQEPSLGCSIPAILFLPRKRSQAELCADPKELWVQQLMQHLDKTPSPQKPAQGCRKDRGASKTGKKGKGSKGCKRTERSQTPKGP
How did the Kd [1] turn out when B6 was run?
The Kd was 0.014 µM.

What about the koff [2] of the same binder?
The koff was 0.0014 s⁻¹.

B7: recombinant human CXCL4 (ligand)
chain: EAEEDGDLQCLCVKTTSQVRPRHITSLEVIKAGPHCPTAQLIATLKNGRKICLDLQAPLYKKIIKKLLES
What does the source list for B7?
Kd [1]: 0.17 µM; koff [2]: 0.00053 s⁻¹

B8: recombinant human CXCL11 (ligand)
chain: FPMFKRGRCLCIGPGVKAVKVADIEKASIMYPSNNCDKIEVIITLKENKGQRCLNPKSKQARLIIKKVERKNF
What does the source list for B8?
Kd [1]: 0.13 µM; koff [2]: 0.0033 s⁻¹

B9: recombinant human CXCL14 (ligand)
chain: SKCKCSRKGPKIRYSDVKKLEMKPKYPHCEEKMVIITTKSVSRYRGQEHCLHPKLQSTKRFIKWYNAWNEKRRVYEE
Which Kd [1] does the source give for B9 here?
Its Kd is 0.045 µM.

What about the koff [2] of the same binder?
Its koff is 0.0019 s⁻¹.
